Measurements as given in US9587002B2, “Sequence of nucleotides and peptides GSE 24.2 of dyskerin, which can induce telomerase activity, method for obtaining same, therapeutic compositions and applications thereof” (CONSEJO SUPERIOR DE INVESTIGACIONES CIENTIFICAS, priority 2005, dated 2017).
“Also recorded” adds a separate entry of the source.

Test system: hTERT promoter
Assay: hTERT-luc reporter (luciferase) assay in 293T cells
Assay type: cell-based, human
Description: FIG. 8.—Activity of the hTERT promoter in the 293T cell lines: pLNCX and 24.2 and in 293T cells transiently transfected with the pLNCX-24.2 construct and the pLNCX empty plasmid. A) Both the pLNCX and the 24.2 cells were transiently transfected with 0.25 μg of the hTERT-luc reporter vector. The cells were seeded in 60-mm plates. After 24 hours of transfection, the cells were lysed and the luciferase activity of 10 μg of total protein was quantified. As a transfection control, the cells were co-transfected with a reporter vector, CMV-Renilla. B) The 293T cells were transfected with the pLNCX vector and the 24.2 plasmid (5 μg), and both were co-transfected with 0.25 μg of the hTERT-luc reporter vector. After seeding the cells as in A, they were transfected with pLNCX and 24.2, and co-transfected with the hTERT-luc reporter vector; subsequently, they were treated as in A. As a transfection control, the CMV-Renilla reporter vector was used. The data correspond to the ratio of relative units of luciferase with respect to non-transfected cells. Each point represents the mean±the standard deviation obtained from 3 independent experiments. C) The 293T cells were transfected with the different GSE 24.4, DSK, TRUB I, TRUB II constructs and the pLNCX empty plasmid (5 μg), and co-transfected with 0.25 μg of the hTERT-luc reporter vector. The cells were seeded in 60-mm plates; after 24 hours of transfection, the cells were lysed and the luciferase activity of 10 μg of total protein was quantified. As a transfection control, the cells were co-transfected with a CMV-Renilla reporter vector. The data correspond to the ratio of relative units of luciferase with respect to non-transfected cells. Each point represents the mean±the standard deviation obtained from 3 independent experiments.
FIG. 9.—Activity of the hTERT promoter following treatment with cisplatin. A) Both the pLNCX cell line and the 24.2 cell line were transiently transfected with 0.25 μg of the hTERTIuc reporter vector. After 24 hours of transfection, they were treated with 3 μg/ml of cisplatin for 8 hours. The cells were seeded in 60-mm plates; after 24 hours of transfection and following treatment with cDDP, the cells were lysed and the luciferase activity of 10 μg of total protein was quantified. As a transfection control, the cells were co-transfected with a CMV-Renilla reporter vector. B) 293T cells which, after being transiently transfected with pLNCX and 24.2, were co-transfected with 0.25 μg of the hTERT-luc reporter vector and treated as in A. After seeding the cells as in A, they were transfected with pLNCX and 24.2, and co-transfected with the hTERT-luc reporter vector; subsequently, they were treated as in A. As a transfection control, the CMV-Renilla reporter vector was used. The data correspond to the ratio of relative units of luciferase with respect to non-transfected cells. Each point represents the mean±the standard deviation obtained from 3 independent experiments.
A) The 293T cells were co-transfected with different constructs (10 μg/DNA per million cells) and the hTERT-luc reporter (1 μg per million cells). The specified cell lines were co-transfected with the hTERT-luc reporter and different quantities of the Mad/myc expression vector. (B) The specified cell lines were co-transfected with the HIV-luc reporter and with different quantities of the Mad/myc expression vector. After 24 h of transfection, the cells were stimulated with 50 ng/ml of TNF-α for 6 hours and the luciferase activity was analysed as described above. CMV-Renilla (0.1 μg/ml per million cells) was used as a control for the transfection efficiency. The data represent the mean of two experiments performed in quadruplicate.
The pseudouridine synthase TRUB domain of dyskerin comprises two structural subdomains: the Trub I and II motifs (Zucchini et al., 2003). These two domains are critical to maintain the global protein structure of dyskerin. […]

B1: GSE 24.2: 165-pb cDNA fragment (nucleotides 268 to 433) of human dyskerin, SEQ ID NO1, encoding peptide SEQ ID NO2, expressed from pLNCX plasmid (nucleic acid, listed as Homo sapiens)
DNA: GGTTTCATTAATCTTGACAAGCCCTCTAACCCCTCTTCCCATGAGGTGGTAGCCTGGATTCGACGGATACTTCGGGTGGAGAAGACAGGGCACAGTGGTACTCTGGATCCCAAGGTGACTGGTTGTTTAATCGTGTGCATAGAACGAGCCACTCGCTTGGTGAAG
modifications: expressed from pLNCX plasmid; CDS (1)..(165) Sequence GSE 24.2
293T cells transiently transfected with construct vs empty vector, hTERT-luc, 24 hours
  activity of the hTERT promoter, transient expression: increases the activity of the hTERT promoter
293T transiently expressing GSE 24.2 vs pLNCX, 3 μg/ml cisplatin 8 hours
  hTERT promoter activity following cisplatin, transient expression: greater than the baseline activity
pLNCX 24.2 cell line vs pLNCX, hTERT-luc, 24 hours
  activity of the hTERT promoter, stable expression: the activity of the hTERT promoter is greater; also recorded: increased the baseline activity of the telomerase promoter
Stable pLNCX 24.2 cells, 3 μg/ml cisplatin for 8 hours
  induction of hTERT promoter activity following cisplatin, relative to pLNCX cells: 4 times
